According to patent US20200165351A1 (University of California, published 2020):

Assays:
[1] = target: bacterially produced human N-cadherin ECD4 with ECD3 overhang (human) (UniProt P19022); experiment: ELISA, saturation binding on immobilized antigen, half-maximal binding
[2] = target: T1, bacterially produced N-cadherin ECD1-3 (UniProt P19022 160-497, limits assumed); experiment: as above
T1 construct: domain: ECD1-3; Antigen against which hybridoma 1H7 was selected; also called ECD1-3 (bacterially produced)
T1 sequence (looked up): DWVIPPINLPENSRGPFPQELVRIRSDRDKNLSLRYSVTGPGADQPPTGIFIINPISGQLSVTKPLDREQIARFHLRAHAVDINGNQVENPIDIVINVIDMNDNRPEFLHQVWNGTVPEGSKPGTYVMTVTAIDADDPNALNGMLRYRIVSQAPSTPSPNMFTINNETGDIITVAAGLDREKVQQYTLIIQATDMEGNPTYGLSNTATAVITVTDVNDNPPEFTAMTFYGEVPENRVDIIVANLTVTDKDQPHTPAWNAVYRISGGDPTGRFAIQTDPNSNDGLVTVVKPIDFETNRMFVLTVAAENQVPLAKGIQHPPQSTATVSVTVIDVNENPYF
Method: FIG. 11 depicts saturation binding of full length IgGs to recombinant antigen in ELISA. Bacterially produced antigens ECD4 and ECD1-3 were immobilized. Bound antibodies were detected with goat anti-human Fcg-AP or goat anti-mouse Fcg-AP respectively.
Saturation binding of the humanized full-length antibodies in comparison to the parental murine antibodies was tested in ELISA.

[3] = target: T2, recombinant human N-cadherin ECD1-3-Fc (human; murine, UniProt P19022 160-497); experiment: ELISA, saturation binding on immobilized antigen
T2 construct: range 160-497; Cloned into pSECTag2A(AgeI); produced in 293-F cells, Protein A purified; also called Ncad-ECD1-3-Fc; not shown: murine gamma 2a Fc region
T2 sequence (looked up): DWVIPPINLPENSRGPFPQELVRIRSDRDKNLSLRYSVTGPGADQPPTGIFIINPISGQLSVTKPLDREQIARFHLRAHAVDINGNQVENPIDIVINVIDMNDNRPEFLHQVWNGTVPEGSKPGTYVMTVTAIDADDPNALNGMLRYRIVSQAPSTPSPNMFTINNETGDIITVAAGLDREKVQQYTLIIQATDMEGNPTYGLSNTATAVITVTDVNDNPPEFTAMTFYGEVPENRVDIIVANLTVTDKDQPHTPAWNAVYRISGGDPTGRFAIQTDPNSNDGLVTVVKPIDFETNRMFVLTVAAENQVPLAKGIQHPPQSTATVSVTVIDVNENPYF
Method: Saturation binding of the humanized scFv fragments was performed on immobilized recombinant human Ncad-ECD1-3-Fc in ELISA (FIG. 8) confirming successful humanization and retained antigen specificity.

B1: hu2A9 IgG (antibody, V domains shown)
VH: QVQLVQSGAEVKKPGASVKLSCKASGYTFTSYWMQWVRQAPGQGLEWIGAIYPGDGETTYTQKFKGRVTMTADTSISTAYMELSRLRSDDTAVYYCAKGDGYWAMDYWGQGTLVTVSS
VL: DVVMTQSPLSLPVTLGQPASISCRSSQSLVHSNGNTYLHWYQQRPGQSPRLLIYKVSNRFSGVPDRFSGSGSGTDFTLKISRVEAEDVGVYYCSQSTHVPLTFGAGTKLELK
B1 gave a Kd [1] of 0.5 nM.

B2: hu1H7 IgG (antibody, V domains shown)
VH: QVQLVQSGAEVKKPGASVKVSCKASGFTFTDYLIQWVRQAPGQGLEWIGWIYPGSGSIKYNEKFQGRVTMTADTSINTAYMELSRLRSDDTAVYFCARRGDWGGFFDYWGQGTLVTVSS
VL: EIVLTQSPATLSLSPGERATLSCTASSSVSSSYLHWYQQKPGLAPRLWIFSTSNLASGIPDRFSGSGSGTDFTLTISRLEPEDFAVYYCHQYHRSLTFGGGTKVEIK
notes: also called h1H7; humanized full-length antibody hu1H7
B2 showed a Kd [2] of 0.4 nM.

B3: humanized 2A9 scFv (scFv)
scFv: QVQLVQSGAEVKKPGASVKLSCKASGYTFTSYWMQWVRQAPGQGLEWIGAIYPGDGETTYTQKFKGRVTMTADTSISTAYMELSRLRSDDTAVYYCAKGDGYWAMDYWGQGTLVTVSSGGGGSGGGGSGGGGSDVVMTQSPLSLPVTLGQPASISCRSSQSLVHSNGNTYLHWYQQRPGQSPRLLIYKVSNRFSGVPDRFSGSGSGTDFTLKISRVEAEDVGVYYCSQSTHVPLTFGAGTKLELK
notes: VH-(G4S)3-VL scFv secreted with the Ig kappa leader; also called hu2A9 scFv; scFv hu2A9; not shown: C-terminal tag from vector pSECTag2A (His-tag; detected through c-Myc)
B3: binds [3].
